Source: publication PMC7515708, “Enhancer RNAs predict enhancer–gene regulatory links and are critical for enhancer function in neuronal systems”

Key:
[1] = biological target: T1, CBP HAT domain (UniProt Q92793 1319-1710); assay: EMSA; 20 nM RNA, 0.05-0.6 uM protein, yeast tRNA 0.1 mg/ml; 20 mM HEPES, 40 mM KCl, 1 mM EDTA, 0.2 mM DTT, 0.1 mg/ml BSA, 0.1% Tween-20, 20% glycerol, 0.1 mg/ml yeast tRNA; pH not stated; 1 h at 37 C; 1% agarose, 0.5x TBE; conditions: protein: commercial; tags: GST; label: fluorescein-12-UTP, internal
[2] = biological target: CBP bromodomain (UniProt Q92793 1081-1197); assay: EMSA; same concentrations as HAT (up to 0.6 uM); no appreciable binding; 20 mM HEPES, 40 mM KCl, 1 mM EDTA, 0.2 mM DTT, 0.1 mg/ml BSA, 0.1% Tween-20, 20% glycerol, 0.1 mg/ml yeast tRNA; pH not stated; 1 h at 37 C; 1% agarose, 0.5x TBE; conditions: protein: commercial; tags: GST; label: fluorescein-12-UTP, internal
[3] = biological target: T1, CBP HAT domain; assay: EMSA; 20 nM RNA, 0.05-0.6 uM protein, yeast tRNA 0.1 mg/ml; almost complete binding at 0.6 uM; 20 mM HEPES, 40 mM KCl, 1 mM EDTA, 0.2 mM DTT, 0.1 mg/ml BSA, 0.1% Tween-20, 20% glycerol, 0.1 mg/ml yeast tRNA; pH not stated; 1 h at 37 C; 1% agarose, 0.5x TBE; conditions: protein: commercial; tags: GST; label: fluorescein-12-UTP, internal
[4] = biological target: T1, CBP HAT domain; assay: competition; against labeled eRNA1; competitor up to 5 uM; 20 mM HEPES, 40 mM KCl, 1 mM EDTA, 0.2 mM DTT, 0.1 mg/ml BSA, 0.1% Tween-20, 20% glycerol, 0.1 mg/ml yeast tRNA; pH not stated; 1 h at 37 C; 1% agarose, 0.5x TBE; conditions: protein: commercial; tags: GST

T1 sequence (Q92793 1319-1710): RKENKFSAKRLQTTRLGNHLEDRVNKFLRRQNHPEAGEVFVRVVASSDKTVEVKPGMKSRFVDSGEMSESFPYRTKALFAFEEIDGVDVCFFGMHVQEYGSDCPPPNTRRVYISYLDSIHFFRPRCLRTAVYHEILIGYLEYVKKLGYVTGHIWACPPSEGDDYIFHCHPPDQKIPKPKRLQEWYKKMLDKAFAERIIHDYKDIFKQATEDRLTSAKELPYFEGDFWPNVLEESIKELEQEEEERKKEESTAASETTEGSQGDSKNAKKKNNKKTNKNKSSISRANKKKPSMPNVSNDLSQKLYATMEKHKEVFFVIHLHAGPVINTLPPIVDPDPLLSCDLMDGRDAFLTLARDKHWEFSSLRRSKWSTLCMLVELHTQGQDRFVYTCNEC
Chain of CBP bromodomain (Q92793 1081-1197): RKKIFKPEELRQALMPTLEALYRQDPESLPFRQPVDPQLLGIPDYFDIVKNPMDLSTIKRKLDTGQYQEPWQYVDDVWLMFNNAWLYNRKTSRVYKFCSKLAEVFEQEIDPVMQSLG

B1: Fos eRNA3 (150), labeled (ssRNA)
RNA: CCUUACUAGCCGCUGAGCGUGCAGGCGUUGGGGACACUUUACACCGGGUUCAGAUUCCAGGGCCGCCACUCCAGGUGGAUAAUGAAGUACAGGCCAUAGUCUUUCUGUGCCCUAGACUGUCAUCUAUAACGUAAGCAUACUAGCAAGACC
B1: binds [1].

B2: Fos eRNA1 (150 nt), labeled (ssRNA)
RNA: UUCGGCGGAACCCAAUACAUGGAGUCUGGAGGUUAAGAGACUGCCAAGAAGUCAAGCGGAAAGAGAAACAAGAACGGGAAAGGAAGCUUGGCUGUUCUGUGGGCUUUGGGGCUUUGACCUUGUCUGGAAGCCAUAAACUCGGCUCGAGGG
B2: no binding [2]; binds [3].

B3: Fos eRNA1 (150 nt), unlabeled competitor (ssRNA)
RNA: B2 RNA
B3: binds [4].

B4: ctrl RNA (150), labeled (ssRNA)
RNA: GCUGCCAUCUGUCACCUAACAGGAGGAGGCUGAGAGUUACUUGUCUGGGAGACUUGCUGAGAGACAAGGACAGGCCCUGGAUCUCCUCAAUGUAGCCUGUCCGGGACUAUUCAGUUCUAUGAGGGACUUCUUAGAGAAACUAGGGUGCCC
B4: binds [1].
